# Starred links: 1 amine or outer side, 2 acyl side, 3 side chain; linkers in the order of their positions; H or OH if unused. Positions of bridges follow the written chain, without caps; N, C: chain ends. Non-standard residues stand in square brackets, D forms with d. Primed or numbered codes have the meaning given here. *: point of attachment. B5(10) = 2-amino-2-(pent-4-en-1-yl)hept-6-enoic acid, bis(4-pentenyl)glycine, stitching residue bearing both staples, C=CCCCC(CCCC=C)(N[*:1])C(=O)[*:2]; PyrS2″ = (S)-3-amino-1-((pent-4-en-1-yloxy)carbonyl)pyrrolidine-3-carboxylic acid (stapling residue), C=CCCCOC(=O)N1CC[C@@](N[*:1])(C(=O)[*:2])C1; B5(5) = 2,2-bis(4-pentenyl)glycine, 2-amino-2-(pent-4-en-1-yl)hept-6-enoic acid (stitching residue), C=CCCCC(CCCC=C)(N[*:1])C(=O)[*:2]; PyrS2 = (S)-3-amino-1-((pent-4-en-1-yloxy)carbonyl)pyrrolidine-3-carboxylic acid, C=CCCCOC(=O)N1CC[C@@](N[*:1])(C(=O)[*:2])C1; B5(12) = 2-amino-2-(pent-4-en-1-yl)hept-6-enoic acid (two olefin side chains), C=CCCCC(CCCC=C)(N[*:1])C(=O)[*:2]; B5(3) = 2,2-bis(4-pentenyl)glycine (stitching residue), C=CCCCC(CCCC=C)(N[*:1])C(=O)[*:2]; Phe(2-Cl) = N[C@@H](Cc1ccccc1Cl)C(=O)O; 1Nal = N[C@@H](Cc1cccc2ccccc12)C(=O)O; Bta = N[C@@H](Cc1csc2ccccc12)C(=O)O; Lys(iPr) = CC(C)NCCCC[C@H](N)C(=O)O; αAllylPro = C=CC[C@@]1(C(=O)O)CCCN1; tBuAla = CC(C)(C)C[C@H](N)C(=O)O; Nle = CCCC[C@H](N)C(=O)O; iPr = CC(C)*
# Biological target: Bcat-Halo (beta-catenin HaloTag construct expressed in HEK293 cells) (UniProt P35222)
# Sequence (P35222 whole entry): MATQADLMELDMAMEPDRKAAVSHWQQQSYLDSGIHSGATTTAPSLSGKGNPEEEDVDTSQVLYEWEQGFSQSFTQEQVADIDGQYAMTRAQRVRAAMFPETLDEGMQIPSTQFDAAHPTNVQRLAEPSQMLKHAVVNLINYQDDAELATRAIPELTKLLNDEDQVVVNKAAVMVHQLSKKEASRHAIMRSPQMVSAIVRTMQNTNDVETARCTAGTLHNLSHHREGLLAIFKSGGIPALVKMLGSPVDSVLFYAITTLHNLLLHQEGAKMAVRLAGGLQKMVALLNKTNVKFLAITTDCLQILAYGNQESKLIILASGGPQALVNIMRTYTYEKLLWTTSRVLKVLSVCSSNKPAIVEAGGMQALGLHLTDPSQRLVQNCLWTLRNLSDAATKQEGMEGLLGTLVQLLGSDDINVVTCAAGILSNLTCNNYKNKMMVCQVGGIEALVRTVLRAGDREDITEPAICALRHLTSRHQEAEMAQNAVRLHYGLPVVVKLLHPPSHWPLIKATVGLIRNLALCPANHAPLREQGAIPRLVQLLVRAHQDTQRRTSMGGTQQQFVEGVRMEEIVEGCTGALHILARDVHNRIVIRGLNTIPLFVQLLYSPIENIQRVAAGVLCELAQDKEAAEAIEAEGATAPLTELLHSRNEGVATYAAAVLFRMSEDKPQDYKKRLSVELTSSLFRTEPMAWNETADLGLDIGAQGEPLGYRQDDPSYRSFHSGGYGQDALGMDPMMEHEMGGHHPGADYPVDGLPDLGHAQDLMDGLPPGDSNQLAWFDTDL
# Experiment: NanoBRET Abs IC50 in HEK293 cells; B-cat-Halo with competitor TCF4-Luc
row,IC50,Binder
1,40100 nM,"Ac-[αAllylPro]D[Nle][B5(12)]DDAAF[Nle][PyrS2″]F[Bta]Q-NH2 (staple 1-4, 4-11) [I-1405]"

# Biological target: Bcat-Halo (UniProt P35222)
# Sequence (P35222 whole entry): as above
# Experiment: NanoBRET Abs IC50, HEK293 cells, Bcat-Halo/TCF4-Luc; competitor TCF4-Luc
row,IC50,Binder
1,17600 nM,"Ac-[αAllylPro]D[tBuAla][B5(3)]DTAAFT[PyrS2″][1Nal][Bta]S-NH2 (staple 1-4, 4-11) [I-1269]"
2,> 20000 nM,"Ac-[αAllylPro]D[tBuAla][B5(3)]DDK(iPr)AFT[PyrS2″][Phe(2-Cl)][Bta]T-NH2 (staple 1-4, 4-11) [I-1273]"
3,27800 nM,"Ac-[αAllylPro]D[tBuAla][B5(3)]DDK(iPr)AFL[PyrS2″][Phe(2-Cl)][Bta]Q-NH2 (staple 1-4, 4-11) [I-1275]"
4,> 20000 nM,"Ac-[αAllylPro]D[tBuAla][B5(3)]DDK(iPr)AFL[PyrS2″][Phe(2-Cl)][Bta]T-NH2 (staple 1-4, 4-11) [I-1276]"
5,> 20000 nM,"Ac-[αAllylPro]D[tBuAla][B5(3)]DDK(iPr)AFL[PyrS2″][Phe(2-Cl)][Bta]L-NH2 (staple 1-4, 4-11) [I-1277]"
6,18000 nM,"Ac-[αAllylPro]D[tBuAla][B5(5)]DDAAFK(iPr)[PyrS2][Phe(2-Cl)][Bta]Q-NH2 (staple 1-4, 4-11) [I-1278]"
7,22900 nM,"Ac-[αAllylPro]D[tBuAla][B5(5)]DDAAFK(iPr)[PyrS2][Phe(2-Cl)][Bta]T-NH2 (staple 1-4, 4-11) [I-1279]"
8,24700 nM,"Ac-[αAllylPro]D[tBuAla][B5(5)]DDAAFK(iPr)[PyrS2][Phe(2-Cl)][Bta]L-NH2 (staple 1-4, 4-11) [I-1280]"
9,22200 nM,"Ac-[αAllylPro]D[tBuAla][B5(5)]DEAAFK(iPr)[PyrS2][Phe(2-Cl)][Bta]Q-NH2 (staple 1-4, 4-11) [I-1281]"
10,43100 nM,"Ac-[αAllylPro]D[tBuAla][B5(5)]DEAAFK(iPr)[PyrS2][Phe(2-Cl)][Bta]T-NH2 (staple 1-4, 4-11) [I-1282]"
11,38600 nM,"Ac-[αAllylPro]D[tBuAla][B5(5)]DEAAFK(iPr)[PyrS2][Phe(2-Cl)][Bta]L-NH2 (staple 1-4, 4-11) [I-1283]"

# Biological target: full-length beta-Catenin (Uniprot ID P35222) (Homo sapiens (Human)) (UniProt P35222)
# Experiment: fluorescence polarization competition; full-length beta-catenin + 5FAM-TCF4(10-53) probe
# Target sequence in this assay (P35222 whole entry, one chain of several): as the sequence (P35222 whole entry) above
row,EC50,Binder
1,173 nM,"Ac-[αAllylPro]D[tBuAla][B5(3)]DTAAFT[PyrS2″][1Nal][Bta]S-NH2 (staple 1-4, 4-11) [I-1269]"
2,9 nM,"Ac-[αAllylPro]D[tBuAla][B5(3)]DDK(iPr)AFT[PyrS2″][Phe(2-Cl)][Bta]T-NH2 (staple 1-4, 4-11) [I-1273]"
3,9 nM,"Ac-[αAllylPro]D[tBuAla][B5(3)]DDK(iPr)AFL[PyrS2″][Phe(2-Cl)][Bta]Q-NH2 (staple 1-4, 4-11) [I-1275]"
4,10 nM,"Ac-[αAllylPro]D[tBuAla][B5(3)]DDK(iPr)AFL[PyrS2″][Phe(2-Cl)][Bta]T-NH2 (staple 1-4, 4-11) [I-1276]"
5,17 nM,"Ac-[αAllylPro]D[tBuAla][B5(3)]DDK(iPr)AFL[PyrS2″][Phe(2-Cl)][Bta]L-NH2 (staple 1-4, 4-11) [I-1277]"
6,10 nM,"Ac-[αAllylPro]D[tBuAla][B5(5)]DDAAFK(iPr)[PyrS2][Phe(2-Cl)][Bta]Q-NH2 (staple 1-4, 4-11) [I-1278]"
7,12 nM,"Ac-[αAllylPro]D[tBuAla][B5(5)]DDAAFK(iPr)[PyrS2][Phe(2-Cl)][Bta]T-NH2 (staple 1-4, 4-11) [I-1279]"
8,22 nM,"Ac-[αAllylPro]D[tBuAla][B5(5)]DDAAFK(iPr)[PyrS2][Phe(2-Cl)][Bta]L-NH2 (staple 1-4, 4-11) [I-1280]"
9,10 nM,"Ac-[αAllylPro]D[tBuAla][B5(5)]DEAAFK(iPr)[PyrS2][Phe(2-Cl)][Bta]Q-NH2 (staple 1-4, 4-11) [I-1281]"
10,34 nM,"Ac-[αAllylPro]D[tBuAla][B5(5)]DEAAFK(iPr)[PyrS2][Phe(2-Cl)][Bta]T-NH2 (staple 1-4, 4-11) [I-1282]"
11,26 nM,"Ac-[αAllylPro]D[tBuAla][B5(5)]DEAAFK(iPr)[PyrS2][Phe(2-Cl)][Bta]L-NH2 (staple 1-4, 4-11) [I-1283]"

# Biological target: full-length beta-Catenin (Uniprot ID P35222) (Homo sapiens (Human)) (UniProt P35222)
# Experiment: fluorescence polarization competition against 5FAM-TCF4(10-53) on full-length beta-catenin
# Target sequence in this assay (P35222 whole entry, one chain of several): as the sequence (P35222 whole entry) above
row,IC50,Binder
1,173 nM,"Ac-[αAllylPro]D[tBuAla][B5(3)]DTAAFT[PyrS2″][1Nal][Bta]S-NH2 (staple 1-4, 4-11) [I-1269]"
2,9 nM,"Ac-[αAllylPro]D[tBuAla][B5(3)]DDK(iPr)AFT[PyrS2″][Phe(2-Cl)][Bta]T-NH2 (staple 1-4, 4-11) [I-1273]"
3,9 nM,"Ac-[αAllylPro]D[tBuAla][B5(3)]DDK(iPr)AFL[PyrS2″][Phe(2-Cl)][Bta]Q-NH2 (staple 1-4, 4-11) [I-1275]"
4,10 nM,"Ac-[αAllylPro]D[tBuAla][B5(3)]DDK(iPr)AFL[PyrS2″][Phe(2-Cl)][Bta]T-NH2 (staple 1-4, 4-11) [I-1276]"
5,17 nM,"Ac-[αAllylPro]D[tBuAla][B5(3)]DDK(iPr)AFL[PyrS2″][Phe(2-Cl)][Bta]L-NH2 (staple 1-4, 4-11) [I-1277]"
6,10 nM,"Ac-[αAllylPro]D[tBuAla][B5(5)]DDAAFK(iPr)[PyrS2][Phe(2-Cl)][Bta]Q-NH2 (staple 1-4, 4-11) [I-1278]"
7,12 nM,"Ac-[αAllylPro]D[tBuAla][B5(5)]DDAAFK(iPr)[PyrS2][Phe(2-Cl)][Bta]T-NH2 (staple 1-4, 4-11) [I-1279]"
8,22 nM,"Ac-[αAllylPro]D[tBuAla][B5(5)]DDAAFK(iPr)[PyrS2][Phe(2-Cl)][Bta]L-NH2 (staple 1-4, 4-11) [I-1280]"
9,10 nM,"Ac-[αAllylPro]D[tBuAla][B5(5)]DEAAFK(iPr)[PyrS2][Phe(2-Cl)][Bta]Q-NH2 (staple 1-4, 4-11) [I-1281]"
10,34 nM,"Ac-[αAllylPro]D[tBuAla][B5(5)]DEAAFK(iPr)[PyrS2][Phe(2-Cl)][Bta]T-NH2 (staple 1-4, 4-11) [I-1282]"
11,26 nM,"Ac-[αAllylPro]D[tBuAla][B5(5)]DEAAFK(iPr)[PyrS2][Phe(2-Cl)][Bta]L-NH2 (staple 1-4, 4-11) [I-1283]"

# Biological target: full-length beta-Catenin (Uniprot ID P35222) (Homo sapiens (Human)) (UniProt P35222)
# Experiment: fluorescence polarization competition; full-length beta-catenin, competitor 5FAM-TCF4 10-53 probe
# Target sequence in this assay (P35222 2-781 limits assumed): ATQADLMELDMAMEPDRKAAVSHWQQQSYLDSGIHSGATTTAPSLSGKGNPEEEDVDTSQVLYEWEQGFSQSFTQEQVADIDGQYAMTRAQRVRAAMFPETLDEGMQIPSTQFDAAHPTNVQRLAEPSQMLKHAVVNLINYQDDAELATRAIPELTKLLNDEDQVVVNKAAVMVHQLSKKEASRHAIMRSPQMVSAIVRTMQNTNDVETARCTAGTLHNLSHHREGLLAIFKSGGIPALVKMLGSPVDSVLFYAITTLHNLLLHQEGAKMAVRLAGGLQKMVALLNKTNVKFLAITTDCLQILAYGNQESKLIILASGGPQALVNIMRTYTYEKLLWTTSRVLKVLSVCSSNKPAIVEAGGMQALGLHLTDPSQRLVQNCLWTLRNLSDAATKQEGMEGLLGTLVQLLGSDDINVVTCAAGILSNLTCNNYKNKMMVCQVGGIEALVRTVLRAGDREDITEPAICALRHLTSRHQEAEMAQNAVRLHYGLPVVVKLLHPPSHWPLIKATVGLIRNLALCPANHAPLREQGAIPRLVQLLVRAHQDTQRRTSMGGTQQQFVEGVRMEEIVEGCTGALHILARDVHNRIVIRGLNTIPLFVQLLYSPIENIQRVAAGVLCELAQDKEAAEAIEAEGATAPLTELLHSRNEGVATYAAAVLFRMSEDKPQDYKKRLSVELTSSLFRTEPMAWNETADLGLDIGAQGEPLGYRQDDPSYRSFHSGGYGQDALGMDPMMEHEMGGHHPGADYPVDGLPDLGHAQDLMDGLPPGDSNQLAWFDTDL
row,IC50,Binder
1,9 nM,"Ac-[αAllylPro]D[Nle][B5(12)]DDAAF[Nle][PyrS2″]F[Bta]Q-NH2 (staple 1-4, 4-11) [I-1405]"

# Biological target: beta-catenin (Homo sapiens (Human)) (UniProt P35222)
# Sequence (P35222 whole entry): as the sequence (P35222 whole entry) above
# Experiment: fluorescence polarization competition; full-length beta-catenin with 5FAM-TCF4(10-53) probe as competitor
row,EC50,Binder
1,9 nM,"Ac-[αAllylPro]D[Nle][B5(12)]DDAAF[Nle][PyrS2″]F[Bta]Q-NH2 (staple 1-4, 4-11) [I-1405]"

# From patent US20240116985A1, “STAPLED PEPTIDES AND METHODS THEREOF” (priority 2020, published 2024)
